# In patent publication US20240343823A1 (Ablynx, published 2024):
# Residue numbers refer to the chain shown, from its start.
# B1: A022600174 (other)
# chain: DVQLVESGGGVVQPGGSLRLSCVASGYVHKINFYGWYRQAPGKEREKVAHISIGDQTDYADSAKGRFTISRDESKNTVYLQMNSLRPEDTAAYYCRALSRIWPYDYWGQGTLVTVSSGGGGSEVQLVESGGGLVQPGGSLRLSCVASGFTFSSFAMTWVRRPPGKGLEWVATITNGGVTSYRDSVKGRFTISRDNAKNTLYLEMTSLNPEDTAVYICANARRTGPRAPTDIGSYRGQGTLVTVSSGGGGSGGGSEVQLVESGGGLVQPGGSLRLSCVASGSIFRSVFSSSTMEWYRQPPGKKRELVARIAPGDGTNYGALYADSVKGRFTISRDDAKKTVDLQMNSLKPEDTGVYFCASGVAWGQGTLVTVSSGGGGSGGGSEVQLVESGGGVVQPGGSLRLSCAASGFTFRSFGMSWVRQAPGKGPEWVSSISGSGSDTLYADSVKGRFTISRDNSKNTLYLQMNSLRPEDTALYYCTIGGSLSRSSQGTLVTVSSA
# B2: A022600175 (other)
# chain: DVQLVESGGGVVQPGGSLRLSCVASGYVHKINFYGWYRQAPGKEREKVAHISIGDQTDYADSAKGRFTISRDESKNTVYLQMNSLRPEDTAAYYCRALSRIWPYDYWGQGTLVTVSSGGGGSEVQLVESGGGLVQPGGSLRLSCVASGFTFSSFAMTWVRRPPGKGLEWVATITNGGVTSYRDSVKGRFTISRDNAKNTLYLEMTSLNPEDTAVYICANARRTGPRAPTDIGSYRGQGTLVTVSSGGGGSGGGSEVQLVESGGGLVQPGGSLRLSCVASGSIFRSVFSSSTMEWYRQPPGKKRELVARIAPGDGTNYGALYADSVKGRFTISRDDAKKTVDLQMNSLKPEDTGVYFCASGVAWGQGTLVTVSSGGGGSGGGGSGGGGSGGGGSGGGGSGGGGSGGGGSEVQLVESGGGVVQPGGSLRLSCAASGFTFRSFGMSWVRQAPGKGPEWVSSISGSGSDTLYADSVKGRFTISRDNSKNTLYLQMNSLRPEDTALYYCTIGGSLSRSSQGTLVTVSSA
# B3: A022600170 (other)
# chain: DVQLVESGGGVVQPGGSLRLSCVASGYVHKINFYGWYRQAPGKEREKVAHISIGDQTDYADSAKGRFTISRDESKNTVYLQMNSLRPEDTAAYYCRALSRIWPYDYWGQGTLVTVSSGGGGSEVQLVESGGGLVQPGGSLRLSCVASGFTFSSFAMTWVRRPPGKGLEWVATITNGGVTSYRDSVKGRFTISRDNAKNTLYLEMTSLNPEDTAVYICANARRTGPRAPTDIGSYRGQGTLVTVSSGGGGSGGGGSGGGGSGGGGSGGGGSGGGGSGGGGSEVQLVESGGGLVQPGGSLRLSCVASGSIFRSVFSSSTMEWYRQPPGKKRELVARIAPGDGTNYGALYADSVKGRFTISRDDAKKTVDLQMNSLKPEDTGVYFCASGVAWGQGTLVTVSSGGGGSGGGSEVQLVESGGGVVQPGGSLRLSCAASGFTFRSFGMSWVRQAPGKGPEWVSSISGSGSDTLYADSVKGRFTISRDNSKNTLYLQMNSLRPEDTALYYCTIGGSLSRSSQGTLVTVSSA
# B4: A022600179 (other)
# chain: DVQLVESGGGVVQPGGSLRLSCVASGYVHKINFYGWYRQAPGKEREKVAHISIGDQTDYADSAKGRFTISRDESKNTVYLQMNSLRPEDTAAYYCRALSRIWPYDYWGQGTLVTVSSGGGGSEVQLVESGGGLVQPGGSLRLSCVASGFTFSSFAMTWVRRPPGKGLEWVATITNGGVTSYRDSVKGRFTISRDNAKNTLYLEMTSLNPEDTAVYICANARRTGPRAPTDIGSYRGQGTLVTVSSGGGGSGGGSEVQLVESGGGVVQPGGSLRLSCAASGFTFRSFGMSWVRQAPGKGPEWVSSISGSGSDTLYADSVKGRFTISRDNSKNTLYLQMNSLRPEDTALYYCTIGGSLSRSSQGTLVTVSSA
# B5: A022600427 (other)
# chain: DVQLVESGGGVVQPGGSLRLSCVASGYVHKINFYGWYRQAPGKEREKVAHISIGDQTDYADSAKGRFTISRDESKNTVYLQMNSLRPEDTAAYYCRALSRIWPYDYWGQGTLVTVSSGGGGSEVQLVESGGGVVQPGGSLRLSCAASGFTFSSFAMTWVRRPPGKGLEWVATITNAGVTSYADSVKGRFTISRDNAKNTLYLQMNSLRPEDTALYICANARRTGPRAPTDIGSYRGQGTLVTVSSGGGGSGGGSEVQLVESGGGVVQPGGSLRLSCAASGSIFRSVFSSSTMEWYRQAPGKKRELVARIAPGEGTYYGALYADSVKGRFTISRDNAKNTVYLQMNSLRPEDTALYYCASGVAWGQGTLVTVSSGGGGSGGGSEVQLVESGGGVVQPGGSLRLSCAASGFTFRSFGMSWVRQAPGKGPEWVSSISGSGSDTLYADSVKGRFTISRDNSKNTLYLQMNSLRPEDTALYYCTIGGSLSRSSQGTLVTVSSA
# B6: A022600425 (other)
# chain: DVQLVESGGGVVQPGGSLRLSCVASGYVHKINFYGWYRQAPGKEREKVAHISIGDQTDYADSAKGRFTISRDESKNTVYLQMNSLRPEDTAAYYCRALSRIWPYDYWGQGTLVTVSSGGGGSEVQLVESGGGVVQPGGSLRLSCAASGSIFRSVFSSSTMEWYRQAPGKKRELVARIAPGEGTYYGALYADSVKGRFTISRDNAKNTVYLQMNSLRPEDTALYYCASGVAWGQGTLVTVSSGGGGSGGGGSGGGGSGGGGSEVQLVESGGGVVQPGGSLRLSCAASGFTFSSFAMTWVRRPPGKGLEWVATITNAGVTSYADSVKGRFTISRDNAKNTLYLQMNSLRPEDTALYICANARRTGPRAPTDIGSYRGQGTLVTVSSGGGGSGGGSEVQLVESGGGVVQPGGSLRLSCAASGFTFRSFGMSWVRQAPGKGPEWVSSISGSGSDTLYADSVKGRFTISRDNSKNTLYLQMNSLRPEDTALYYCTIGGSLSRSSQGTLVTVSSA
# B7: A022600426 (other)
# chain: B6 chain with A315K
# B8: A022600412 (other)
# chain: DVQLVESGGGVVQPGGSLRLSCVASGYVHKINFYGWYRQAPGKEREKVAHISIGDQTDYADSAKGRFTISRDESKNTVYLQMNSLRPEDTAAYYCRALSRIWPYDYWGQGTLVTVSSGGGGSEVQLVESGGGVVQPGGSLRLSCAASGFTFSSFAMTWVRRPPGKGLEWVATITNAGVTSYADSVKGRFTISRDNAKNTLYLQMNSLRPEDTALYICANARRTGPRAPTDIGSYRGQGTLVTVSSGGGGSGGGGSGGGGSGGGGSEVQLVESGGGVVQPGGSLRLSCAASGFTFRSFGMSWVRQAPGKGPEWVSSISGSGSDTLYADSVKGRFTISRDNSKNTLYLQMNSLRPEDTALYYCTIGGSLSRSSQGTLVTVSSA
# B9: A022600169 (other)
# chain: DVQLVESGGGLVQPGGSLRLSCVASGFTFSSFAMTWVRRPPGKGLEWVATITNGGVTSYRDSVKGRFTISRDNAKNTLYLEMTSLNPEDTAVYICANARRTGPRAPTDIGSYRGQGTLVTVSSGGGGSEVQLVESGGGVVQPGGSLRLSCVASGYVHKINFYGWYRQAPGKEREKVAHISIGDQTDYADSAKGRFTISRDESKNTVYLQMNSLRPEDTAAYYCRALSRIWPYDYWGQGTLVTVSSGGGGSEVQLVESGGGLVQPGGSLRLSCVASGSIFRSVFSSSTMEWYRQPPGKKRELVARIAPGDGTNYGALYADSVKGRFTISRDDAKKTVDLQMNSLKPEDTGVYFCASGVAWGQGTLVTVSSGGGGSGGGGSGGGGSGGGGSGGGGSGGGGSGGGGSEVQLVESGGGVVQPGGSLRLSCAASGFTFRSFGMSWVRQAPGKGPEWVSSISGSGSDTLYADSVKGRFTISRDNSKNTLYLQMNSLRPEDTALYYCTIGGSLSRSSQGTLVTVSSA
# B10: A022600172 (other)
# chain: DVQLVESGGGVVQPGGSLRLSCVASGYVHKINFYGWYRQAPGKEREKVAHISIGDQTDYADSAKGRFTISRDESKNTVYLQMNSLRPEDTAAYYCRALSRIWPYDYWGQGTLVTVSSGGGGSEVQLVESGGGLVQPGGSLRLSCVASGFTFSSFAMTWVRRPPGKGLEWVATITNGGVTSYRDSVKGRFTISRDNAKNTLYLEMTSLNPEDTAVYICANARRTGPRAPTDIGSYRGQGTLVTVSSGGGGSGGGSEVQLVESGGGVVQPGGSLRLSCAASGFTFRSFGMSWVRQAPGKGPEWVSSISGSGSDTLYADSVKGRFTISRDNSKNTLYLQMNSLRPEDTALYYCTIGGSLSRSSQGTLVTVSSGGGGSGGGSEVQLVESGGGLVQPGGSLRLSCVASGSIFRSVFSSSTMEWYRQPPGKKRELVARIAPGDGTNYGALYADSVKGRFTISRDDAKKTVDLQMNSLKPEDTGVYFCASGVAWGQGTLVTVSSA
# Biological target: T1, human GPC3 on tumor cell lines (HepG2, Huh-7, NCI-H661, MKN-45, NCI-H23, BxPC-3, NCI-H292) (human, UniProt P51654 25-554)
# Assay: cell-based or functional assay
Binder,HepG2 on Incucyte IC50 [nM],HepG2 on Incucyte Max % killing [%],Huh7 on xCELLigence IC50 [nM],Huh7 on xCELLigence Max % killing [%]
B1,0.673,96,0.0626,99
B2,0.527,96,0.0586,99
B3,0.319,97,0.186,103
B4,2.92,76,6.13,66

# Biological target: T1, human GPC3 on tumor cell lines (HepG2, …)
# Assay: cell-based or functional assay
# Remark: another data set of the same source
Binder,"IC50 (M) BxPC-3, xCELLigence human TDC assay [M]","IC50 (M) HepG2, xCELLigence human TDC assay [M]","IC50 (M) Huh-7, xCELLigence human TDC assay [M]","IC50 (M) NCI-H23, xCELLigence human TDC assay [M]","IC50 (M) NCI-H661, xCELLigence human TDC assay [M]"
B5,> 1e-07,1.03e-10,1.37e-10,> 1e-07,1e-10
B6,> 1e-07,1.11e-10,1.58e-10,> 1e-07,2.59e-10
B7,> 1e-07,1.25e-10,1.09e-10,> 1e-07,2.64e-10
B8,> 1e-07,3.82e-10,1.53e-09,,6.18e-10

# Biological target: T1, human GPC3 on tumor cell lines (HepG2, …)
# Assay: cell-based or functional assay
# Remark: another data set of the same source
Binder,HepG2 on Incucyte IC50 [nM],HepG2 on Incucyte Max % killing [%],Huh7 on xCELLigence IC50 [nM],Huh7 on xCELLigence Max % killing [%]
B2,0.527,96,0.0586,99

# Biological target: T1, human GPC3 on tumor cell lines (HepG2, …)
# Assay: cell-based or functional assay
# Remark: another data set of the same source
Binder,HepG2 on Incucyte IC50 [nM],HepG2 on Incucyte Max % killing [%],Huh7 on xCELLigence IC50 [nM],Huh7 on xCELLigence Max % killing [%]
B1,0.673,96,0.0626,99
B9,0.641,81,1.02,61
B10,0.601,81,0.067,90
